# Reference: the nanobody polyreactivity screen of Harvey et al. (2022)
# Test: yeast display, Sf9 membrane polyspecificity reagent, FACS + sequencing; frameworks hold sequencing errors
# How it was run: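 Galactose induction of a Saccharomyces cerevisiae BJ5465 synthetic nanobody display library ran 36–48 hours. The cells were then stained for 1 hour at 4 °C with 10% biotinylated, detergent-solubilized Sf9 membrane reagent, pulled down on streptavidin microbeads and FACS-sorted into low and high (top ~1%) gates on expression and reagent-binding fluorescence. Labels for polyreactivity follow the gate of origin.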
row,Sequence,polyreactivity (PSR sort gate)
1,QVQLVESGGGLVQAGGSLRLSCAASGRTFQNNAMGWYRQAPGKERELVAAISRSGASTYYADSVKGRFTISRDNAKNTVYLQMNSLKPEATAVYYCAAVTKLGYPPVNHLEDDYWGQGTQVTVSS,low polyreactivity
2,QVQLVESGGGLVQAGGSLRLSCAASGFIFRRNAMGWYRQAPGKERELVAAISRTGGSTYYADCVKGRFTISRDNAKNTDYLQMNSLKPEDTAVYYCARYGLVYALGYWGQGTQVTVSS,high polyreactivity
3,QVQLVESGGGLVQAGGSLRLSCAASGRIFAYYAMGWYRQAPGKERELVATITDSGDDTYYADSVKGRFTISRDNAKNTVYLQMNSLKPEDTAVYYCNAVWRGWYPYWYDYWGQGTQVTVSS,low polyreactivity
4,QVQLVESGGGLVQAGGSLRLSCAASGITFPRYAMGWYRQAPGKERELVATITRSGGGTYYADSVKGRFTISRDNAKNTVNLQMNSLKPEDTAVYYCAAGALQRGVYGYGYWGQGTQVTVSS,high polyreactivity
5,QVQLVESGGGLVQAGGSLRLSCAASGSTFDAYAMGWYRQAPGKERELVAAITWSGGSTYYADSVKGRFTISRDNAKTTVYLQMNSLKPEDTAVYYCAAYYLIFYFEFDYWGQGTQVTVYS,low polyreactivity
6,QVQLVESGGGLVQAGGSLRLSCAASGSTNSQYAMGWYRQAPGKERELVAAITTSDGSTNYADSVKGRFTISRDNAKNTVYLQMNSLKPEDTAVYYCNTEYFYFSFGYWGQGTQVTVSS,low polyreactivity
7,QVQLVESGGGLVQAGGSLRLSCAASGSTLATYTMGWYRQAPGKERELVAAISFGGSTYYADSVKGRFTISRDNAKNTVYLQMNSLKPEDTAVYYCAVYGDSYWGASYYSDGYWGQGTQVTVSS,low polyreactivity
8,QVQLVESGGGLVQAGGSLRLSCAASGFILSHYVMGWYRPAPGKERELVATIRNVGSTKYADSVKGRFTISRDNAKNTVYLQMNSLKPEDTAVYYCNARRWEGYYEFNYWGQGTQVTVSS,low polyreactivity
9,HVQLVESGGGLVQAGGSLRISCAASGRTFYKNAKGRYRQAPGKEREFVASISVSGGRTYYADSVKGRFTISRDNAKNTVYLQMNILNPEDSAVYYCNARASPLSQRDYWGQGTQVTVSS,low polyreactivity
10,QDQLVESVGCLVQAGGSLRLSCAASGLTIQRNDMGWYRQAPGKEREFVATITSNAGSTYYADSVKGRFTISRDNAKNTVYLQKNSLKPEDTAVYYCARERWWGGSDYWGQGTQVTVSS,high polyreactivity
11,QVQLVESGGGLVQAGGSLRLSCAASGSTFYRNAMGWSRPAPGKERELVAAINKSGGRTYYADSVKGRFTISRDNAKNTVYLQMNSLKPEDTAVYYCAAGVSVDLDYWGQGTQVTVSS,high polyreactivity
12,QDQLVDSGVCLVQARGSLRLSCAASGRIFDAYTMGWYRQAPGKESELVASITGRDGSTYYADSVKGRFTISRDNAKNTVYLQMNSLKPEDTAVDYCNAKYSSFGIRYNYWGQGTQVTVSS,high polyreactivity
13,QVQLVESGGGLVQAGGSLRLSCAASGSIFEYNDMGWYRQAPGKERELVAAITTGGRTSYADSVKGRFTISRDNAKNTVYLQMNSLKPEDTAVYYCAAEPPAEFWTDRLVDYYVGYDYWGQGTQVTVSS,low polyreactivity
14,QVQLVESGGGLVQAGGSLRLSCAASGFIFGPYAMGWYRQAPGKERELVADITIDSGSTYYADSVKGRFTISRDNAKNTVYLQMNSLKPEDTAVYYCATDYWNEYEYWGQGTQVTVSS,low polyreactivity
15,QVQLVESGGGLVQAGGSLRLSCAASRIIFYGNAMGWYRQAHGKERELVAAIDQSGDSTYYADSVKGRFTISRDNAKNTVYLQMNSLKPEDTAVYYCAADSLYLAYEYWGQGTQVTVSS,high polyreactivity
16,QVQLVESGGGLVQAGGSLRLSCAASGRIFRYNTMGWYRQAPGKERELVASITYRGGSTYYADSVKGRFTISRDNAKNTVYLQMNSLKPEDTAVYYCAASPARYWYGGKEYDYWGQGTQVTVSS,high polyreactivity
17,QVQLVESGGGLVQAGGSLRLSCAASGRILEGYSMGWYRQAPGKERELVAAISFSTTTTYYADSVKGRFTISRDNAKNTVYVQMNILKPEDTAVYYCAADSQQSDYDYWGQGTQVTVSS,high polyreactivity
18,QVQLVESGGGLVQAGGSLRLSCAASGSIFASYAMGWYRQAPGKERELVAAIRSSGGRTYYADSVKGRFTISRDNAKNTVYLQMNSLKPEDTAVYYCNARRPGYRPYGYDYWGQGTQVTVSS,high polyreactivity
19,QVQLVESGGGLVQAGGSLRLSCAASGGIFFRNDMGWYRQAPGKERELVAAISSNGGSTYYADSVKGRFTISRDNAKNTVYLQMNSLKPEDTAVYYCNTGVYSSGGPLDYWGQGTQVTVSS,low polyreactivity
20,QVQLVESGGGLVPAGGSLRLSCAASGSTFVRYVMGWYRQAPGKERELVAAISRRGGSTYYADSVKGRCTISRDIAKNTVYLQMNSLKPEDTAVYYCADSRGTRTTGYSSYDRFGYWGQGTQVTVSS,high polyreactivity
21,QVQLVESGGGLVQAVGSLRLSCAASGRTFQSYTMGWYRQAPGKEREFVAAFRDSGGSTYYADSVKGRFTISRDNAKNTVFLQMNSLKPEDTAVYYCAAYRPRKYDYWGQGTQVTVSS,high polyreactivity
22,QVKLVESAGGLVQAGGSHRLSCAASARIFRGNTRGWYRQAPGKEREVVARITWNGGTTNYADSVKGRFTISRDYAKNTVSLQMNSLKPVDTAVYYCAKGSLRQITGILSWYYYWRQGTQVTVSS,high polyreactivity

row,Sequence,polyreactivity (PSR sort gate)
1,QVHLVESGGGLVQAGGSLRLSCAASGFIFHLNSMGWYRQAPGTERELVAAFSWNGGSTFYADSVKGRFTISRDNAKNTVYLQMNSLKPEDTAVYYCNADFRPAYTYDYWGQGTQVTVSS,low polyreactivity
2,QVQLVESGGGLVQAGGSLRLSCAASGSIFPDYTMGWYRQAPGKERELVAAITRSGDSTYYADSVKGRFTISRDNAKNTVYLQMNSLKPEDTAVYYCARDAFSVSDFSYASIEYDYWGQGTQVTVSS,low polyreactivity
3,QVQLVESGGVLVQAGGSLRLSCAASGNIFYAYAMGWYRQAPGKERELVAAISWSGDSTYYADSVKGRFTISRDNAKNTVNLQMNSLKPEETAVEYCAADSYRFYSGYYYWGQGTQVTVSS,low polyreactivity
4,QVQLVESGGGLVQAGGSLRLSCAASGITFRTYAMGWNRQAPGKERELVAAITRRGGSTYYADSVKGRFTISRDNAKNTVYLQMNSLKPEDTAVYYCAVRHNGIQASVGYDYWGQGTQVTVSS,high polyreactivity
5,QVQLVESGGGLVQAGGSLRLSCAASGRIFKSYAMGWYRQAPGKERELVAAISRSGGRTYYADSVKGRFTISRDNAKNTVYLQMNSLKPEDTAVYYCAATTFVAPYLGQGTQVTVSS,low polyreactivity
6,QVQLVESGGGLVQAGGSLRLSCAASGSTLPYYAMGWYRQAPGKEWELVAAITSSGGDTYYADSVKGRFTISRDNAKNTVYLQMNSLKTEDTAVYYCAKSYSARSTVRKLFYFAYDYWGQGTQVTVSS,low polyreactivity
7,QVQLVESGGGLVQAGGSLRLSCAASGSIFYPYAMGWYRQAPGKERELVAAIDYSDGSTYYADSVKGRFTISRDNAKNTVYLQMNSLKPEDTAVYYCAADGTYVWGSEEGNYWGQGTQVTVSS,low polyreactivity
8,QVQLVDSGGGLVQAGGSLRLSCADSGSIFPANVMGWYRQAPGKERELVAAISRGGSTYYADSVKGRFTISRDNAKNTVYLQMNSLKPEDTAVYYCAVAFRGSYRPAYYYWGQGTQVTVSS,high polyreactivity
9,QVQLVESGGGLVQAGGSLRISCAASGRTFDYNAMGWYRQAPGKERELVAAIRFGGGSTYYADSVKGRFTISRDNAKNTVYFQMNSLKPEDTAVYYCNASPLWIGWEIVPVGSSHYDYWGQGTQVTVSS,low polyreactivity
10,QVQLVESGGGLVQAGGSLRLSCAASGRTFTGNVMGWYRQAPGKERELVAAISRSGTSTYYADSVKGRFTISRDNAKNTVYLQMNSLKPEDTAVYYCAARRTAGYRSGEYDYWGQGTQVTVSS,high polyreactivity
11,QVQLVESGGGLVQAGGSLRLSCAASGSIFVTYGMGWYRQAPGKERELVARITTSGGSTYYADSVKGRFTISRDNAKNTVYLQMNSLKQEDTAVYYCNVRFAWGWTYWRYDYWGQGTQVTVSS,high polyreactivity
12,QVQLVESGGGLVQAGGSLRLSCAASGSTIGDNAMGWYRQAPGIERELGASMSWSGASTYYADSVKGRFTISRDNAKNTVYLQMNCLKPDDTAVYYCGVYYSYYSHLYHMLFYYWGQGTQVTVSS,low polyreactivity
13,QVQLVESGGGLVQAGGSLRLSCAASGFTFDSYDMGWSRQAPVKEREVVAAITWSGGSTYYADSVKGRFTISRDNAKNTVYLQMNSLKQEDTAVYYCNADTGTYWVPWYHDGYDYWGQGTQVTVSS,low polyreactivity
14,QVQLVESGGGLVQAGGSLRLSCAASGRTFYRNTMGWYRQAPGKERELVAAITGSGGITYYADSVKGRFTISRDNAKNTVYLKMNSLKPEDTAVYYCAAARYLGQGTQVTVSS,high polyreactivity
15,QVQLVESGGGLVQAGGSLRLSCAASGSTFPGNAMGWYRQAPGKEREFVAVISRSGGGTYYADSVKGRFTISRDNAKNTVYLQMNSLKPEDTAVYYCAARRGLWGYGTGNGYWGQGTQVTVSS,low polyreactivity
16,QVQLVESGGGLVQAGGSLRLSCAASGIIFKRYVMGWYRQAPGKDRQLVAGISWSGVSTFYADSVKGRFTISRDNAKNTVYLQMNSLKPEDTAVYYCAADRARYYYQAYGAYGYWGQGTQVTVSS,high polyreactivity
17,QVQLVESGGGLVQAGGSLRLSCAASGSTFGRYAMGWYRQAPGKERELVAAITRSGGRTYYADSVKGRFTISRDNAKNTVYLQLNSLKPEDTAVYYCAAVGNLYYTSHWQYDYWGQGTQVTVSS,high polyreactivity
18,QVQLVESGGGLVQAGGSLRLTCAASVFTWSYAMVWDRHATGKERELVATISDGVSTNYSDSVKGRFTISRDNAKNSVYLQMNSLKPEDTAVYYCAVRVSGPRGYDYEYWGQGTQVTVSS,low polyreactivity
19,QVQLVESGGGLVQAGGSLRLSCAASGRIFYSYAMGWYRQAPGKERELVATITNGGSTNYADSVKGRFTMSRDNAKNTVYLQMNSLKPEDTAVYYCAKRSFRYASALVRYPPGYYWGQGTQVTVSS,high polyreactivity
20,QVQLVESGGGLVQAGGSLRLSCAASGRTFPGYAMGWYRQAPGKERELVAAISNSGGRTYYADSVKGRFTISRDYAKNTVYLQMNSLKPEDTAVYYCNATTDNGSNKRYYYWGQGTQVTVSS,high polyreactivity
21,QVQLVESGGGLFQAGRSLRISCAASGFIFSQNTMGWYRQAPGKEWELVAAISKSRGTTYYADSVKGRYTITRDNAKNTVYLQMYSLKPEDTAVYYCAARIQWPTWSLYYYWGQGTQVTVSS,high polyreactivity
